± gives the standard deviation of the averaged measurements.
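Also: ATP exposure 15 min at 22 °C before imaging.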

The subject of this series is ATP. As to the kind of experiment: switch fluorescence ratio, 500 uM ATP over buffer (Cy3 cluster intensity, sum of 5 cycles each) (fold (ratio)); higher = stronger signal-on switching upon ATP binding; sequences stand for … in TCGTCGGCAGCGTCAGATGTGTATAAGAGACAGTTTTTTTTTTTTTTTTTTTTTTTTT…TC. Particulars: aptamer strand: ATP DNA aptamer (quencher-CACCTGGGGGAGTATTGCGGAGGAAGG + anchor), 100 nM annealed; ATP concentration: 500 uM. Put shortly: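 The fluorescence ratio divides summed target-cycle Cy3 intensity by summed buffer-cycle Cy3 intensity for each cluster and is averaged per switch-domain sequence. Cy3-labelled switching-strand clusters on a modified Illumina MiSeq flow-cell were annealed to 100 nM quencher-labelled ATP aptamer, then imaged in selection buffer and again after 15 min with 500 uM ATP at 22 °C. Five such cycles were run, with NaOH stripping and re-annealing between them, and clusters outside 100-1000 RFU were excluded.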
On to CAAGTGCAGA, for which the switch fluorescence ratio is 1.052 ± 0.0078. For CGAATCTTGT, the switch fluorescence ratio came out at 1.01 ± 0.016. For GTTATTATGG, the switch fluorescence ratio is 1.013 ± 0.0084.

As to TTCAGACTTT, the switch fluorescence ratio was determined as 0.996 ± 0.022. As for AATATTTTCG, the switch fluorescence ratio came to 0.998 ± 0.038. Turning to CTTGCGTGTC, the switch fluorescence ratio was determined as 1.03 ± 0.038.

As to AAGCATCTAC, the switch fluorescence ratio came out at 2.08 ± 0.32. Take TGGACCATTT: the switch fluorescence ratio came out at 1.01 ± 0.0021. For the sequence CTTGTATTAC, the switch fluorescence ratio is 1.16 ± 0.024. With CTGTTATTTT, the switch fluorescence ratio amounted to 0.974 ± 0.03.

AAGGGGGGCA: the switch fluorescence ratio is 0.966 ± 0.037. Take TTTTTGCCGA: the switch fluorescence ratio was determined as 1.01 ± 0.052. Consider CGTTTACGGA, for which the switch fluorescence ratio stood at 0.998 ± 0.026. As for AGGGTGTGAC, the switch fluorescence ratio was determined as 1.01 ± 0.036. Take TAAATCGGGT: the switch fluorescence ratio worked out at 1 ± 0.013.

Turning to AAGTGCAGCC, the switch fluorescence ratio is 1.01 ± 0.023. Then ATCGGAGTAT, with 0.996 ± 0.034. For GACTGGGGAT, the switch fluorescence ratio worked out at 0.995 ± 0.025. Consider CCTTTTTTGG, for which the switch fluorescence ratio was found to be 1.02 ± 0.021. As for AAAGGAGGTT, the switch fluorescence ratio came to 1 ± 0.028.

For the sequence GCGGTCAGCT, the switch fluorescence ratio is 0.99 ± 0.087. On to GCGGGATTAT, for which the switch fluorescence ratio was determined as 1.012 ± 0.0057. Then GTGTCAACTA, with 0.987 ± 0.016; and GTTTTAGCTT, with 1 ± 0.011. Consider AAGCGGGTCG, for which the switch fluorescence ratio was determined as 1.03 ± 0.049.

Consider GGCCTCGACC, for which the switch fluorescence ratio was found to be 1.03 ± 0.0086. To CATGGTTGCG belongs 0.987 ± 0.022; to CGGCTTGGGG, 1 ± 0.015. Regarding GTAGGGGTTG, the switch fluorescence ratio worked out at 1.01 ± 0.053.

Take AAAAGGGTGA: the switch fluorescence ratio came to 1.02 ± 0.01. For the sequence ATAATTTGAC, the switch fluorescence ratio came to 1.04 ± 0.058. On to GATGGTGTGC, for which the switch fluorescence ratio was found to be 1.15 ± 0.29. As for CCTGGGAGTG, the switch fluorescence ratio amounted to 0.999 ± 0.035. Then CGTGTAGTTG, with 1.02 ± 0.026; and TTTTTATAAT, with 1.01 ± 0.026; and TTAAGAGGG, with 0.987 ± 0.014. Consider GGTGTTGCAA, for which the switch fluorescence ratio amounted to 1.02 ± 0.016. For the sequence CAGCTGGGGA, the switch fluorescence ratio came to 1.01 ± 0.055.

Take ATACTTATTG: the switch fluorescence ratio came to 0.99646 ± 0.0008. For the sequence TTATCTAATC, the switch fluorescence ratio worked out at 0.972 ± 0.008.

On to ATTGAAAGAG, for which the switch fluorescence ratio turned out to be 1.21 ± 0.28.

For the sequence TTTTGGCGCG, the switch fluorescence ratio turned out to be 1 ± 0.061. On to AGGGTCAGTG, for which the switch fluorescence ratio came to 1.02 ± 0.062. Take GTGAGCGGGG: the switch fluorescence ratio came out at 0.974 ± 0.037. To ATATCCTCCC belongs 1.35 ± 0.016; to TTTTGGGTAA, 1.01 ± 0.0051. Consider GGGGAAGCGC, for which the switch fluorescence ratio came out at 1.01 ± 0.068. Consider TGTTCTAGGT, for which the switch fluorescence ratio came to 1.014 ± 0.0018. For AGACGTTTTT, the switch fluorescence ratio amounted to 1 ± 0.033. Then GTTCTAAGTA, with 0.957 ± 0.0039; and GGTTATGGGG, with 0.985 ± 0.027. Consider ATTTGAGTTA, for which the switch fluorescence ratio came to 1 ± 0.056. Turning to GAGGTTGACA, the switch fluorescence ratio is 1.03 ± 0.017. Then GAAGGGAAGA, with 0.96 ± 0.012; and TAATGTATGA, with 0.972 ± 0.04; and TATTGACTTT, with 1.28 ± 0.35. GCACACCGAG: the switch fluorescence ratio turned out to be 1.083 ± 0.0059.

With GGATATTGCT, the switch fluorescence ratio is 0.949 ± 0.043. In the case of CGGCTTATTC, the switch fluorescence ratio came out at 1.04 ± 0.015.

With CAGCTAACTT, the switch fluorescence ratio came out at 1.0399 ± 0.00052.

Consider ATATATTGGC, for which the switch fluorescence ratio was 1.02 ± 0.054. With TTATGGGCAG, the switch fluorescence ratio came out at 1.01 ± 0.029. On to TACGGATTGT, for which the switch fluorescence ratio was found to be 0.988 ± 0.027. AAGTTGGAGG: the switch fluorescence ratio came out at 0.9797 ± 0.0024.

As for GAGTCGCCTG, the switch fluorescence ratio worked out at 0.991 ± 0.037. For GCAATTTCAG, the switch fluorescence ratio amounted to 1.05 ± 0.021. For TATCTGTTGT, the switch fluorescence ratio amounted to 0.967 ± 0.033. As to AGGGTAAAAG, the switch fluorescence ratio turned out to be 1.03 ± 0.024. With TAGAAGGGTT, the switch fluorescence ratio worked out at 1 ± 0.024. With AACGCGTGGT, the switch fluorescence ratio stood at 1.01 ± 0.02. Turning to TACCATGAAT, the switch fluorescence ratio is 1.01 ± 0.045. For TTACGGGTAG, the switch fluorescence ratio amounted to 1.02 ± 0.0088. Consider TTTACGTGAC, for which the switch fluorescence ratio was 1.22 ± 0.16. Consider CGGTTGGGGT, for which the switch fluorescence ratio is 0.989 ± 0.0088. Take ACTCTAGTTT: the switch fluorescence ratio came to 1.048 ± 0.0027.

On to CGGATGGAGG, for which the switch fluorescence ratio came to 0.988 ± 0.042. Take TCACGTGGTT: the switch fluorescence ratio was 1.03 ± 0.016.

As to GAAGGTAGGT, the switch fluorescence ratio is 0.98 ± 0.024. As to ATTCCGGTGG, the switch fluorescence ratio is 0.989 ± 0.052. ACGATAGGGG: the switch fluorescence ratio was determined as 1.03 ± 0.031. Take ACTGGTATTG: the switch fluorescence ratio is 1.02 ± 0.025. With GTTTATTGAA, the switch fluorescence ratio stood at 1.024 ± 0.0036. Take TATGATGGGG: the switch fluorescence ratio was found to be 0.963 ± 0.035.

For the sequence AGGATTTAAG, the switch fluorescence ratio is 1.05 ± 0.022. CTTACCTGAG: the switch fluorescence ratio came out at 1.31 ± 0.045. Consider GAACTGCATA, for which the switch fluorescence ratio was found to be 1.09 ± 0.085. To TGAGTCGTTG belongs 0.972 ± 0.01; to AGTCTAAATA, 1.02 ± 0.02. In the case of AGATAAAACG, the switch fluorescence ratio came out at 1.02 ± 0.076. With AAGTTCGGTG, the switch fluorescence ratio turned out to be 0.9695 ± 0.0027. GATTGCATGC: the switch fluorescence ratio was 1.032 ± 0.0014.

For GGTCGCAGGG, the switch fluorescence ratio worked out at 1 ± 0.026.

TAATGCAATT: the switch fluorescence ratio came out at 1.018 ± 0.0064. Regarding GGCGTGATGC, the switch fluorescence ratio turned out to be 1.091 ± 0.0076. To TCCTACTGTT belongs 0.9957 ± 0.0061; to CGCTATTATA, 1.09 ± 0.052; to GGGGGAAGCG, 0.9685 ± 0.0034. On to CGTGGTATTT, for which the switch fluorescence ratio was 0.982 ± 0.016.

As for AGGGGGTATG, the switch fluorescence ratio amounted to 0.983 ± 0.014. With AGCAAATTCG, the switch fluorescence ratio was 1.04 ± 0.016. As to AATAGTGCCC, the switch fluorescence ratio came out at 0.999 ± 0.053. Regarding GTTGGTTTTC, the switch fluorescence ratio was 0.99 ± 0.036.

For ATAATTGGGG, the switch fluorescence ratio is 0.98 ± 0.026. Then ATGTCCGAGG, with 1.028 ± 0.0019; and TTTTGGCCGG, with 1.05 ± 0.035. With TGCGTGTGGG, the switch fluorescence ratio is 1.0208 ± 0.001. With GACATGGGTG, the switch fluorescence ratio is 1.02 ± 0.031. In the case of GGTTTTCGTT, the switch fluorescence ratio stood at 0.99 ± 0.021.

Take TTAAGAGACA: the switch fluorescence ratio was found to be 1.03 ± 0.033. To TCATGGTTTA belongs 1.01 ± 0.016.

Consider CTGGCTAGAG, for which the switch fluorescence ratio came to 0.973 ± 0.018. For CGGCGATTTA, the switch fluorescence ratio worked out at 1.003 ± 0.009. With GGGGTTAAAC, the switch fluorescence ratio came to 1.04 ± 0.034. For the sequence GTAAATTTGA, the switch fluorescence ratio was 1.03 ± 0.068.

In the case of TTGTTATGTA, the switch fluorescence ratio was 0.982 ± 0.026. To TAAAGGATCC belongs 1.02 ± 0.041; to CGTGGCGGTA, 1.04 ± 0.031. Then TTGGTAATCC, with 1.011 ± 0.0026. Turning to GTTTGGGGCT, the switch fluorescence ratio came out at 0.989 ± 0.019.

TCAATTTCAC: the switch fluorescence ratio was determined as 1.9 ± 1.3.

Source of the values: the supplement of paper PMC10126150.
